From patent US20020177231A1 (published 2002)

Biological target: T1, PYK2 (UniProt Q14289 1-1009, limits assumed)
T1 construct: Endogenous protein in cell lysate, detected with anti-PYK2 monoclonal antibody P47120 (Transduction Labs)
Assay: GST pull-down from JY8-8 lysate, anti-Pyk2 immunoblot
Experimental: In preparation of cell lysate including Pyk2, JY8-8 cell lysate was prepared by disrupting 4×10⁷ exponentially growing cells in one ml of Ipegal Lysis Buffer (described above) for 10 minutes on ice. Lysate was clarified by centrifugation at 10,000 rpm in a microfuge at 4° C. JY8-8 lysate (corresponding to approximately 1×10⁷ cells) was incubated for 90 minutes with 30 μl glutathione agarose on which approximately one μg of GST or GST-containing fusion protein was immobilized. The resin was washed three times with one ml Ipegal lysis buffer.
Pyk2 present in lysates of JY8-8 cells bound specifically to GST-LD protein but not to GST alone. Pyk2 binding was detected with wild-type GST-LD, and GST-LD proteins with mutations in the second or fourth LD motifs.

T1 sequence (Q14289 whole entry): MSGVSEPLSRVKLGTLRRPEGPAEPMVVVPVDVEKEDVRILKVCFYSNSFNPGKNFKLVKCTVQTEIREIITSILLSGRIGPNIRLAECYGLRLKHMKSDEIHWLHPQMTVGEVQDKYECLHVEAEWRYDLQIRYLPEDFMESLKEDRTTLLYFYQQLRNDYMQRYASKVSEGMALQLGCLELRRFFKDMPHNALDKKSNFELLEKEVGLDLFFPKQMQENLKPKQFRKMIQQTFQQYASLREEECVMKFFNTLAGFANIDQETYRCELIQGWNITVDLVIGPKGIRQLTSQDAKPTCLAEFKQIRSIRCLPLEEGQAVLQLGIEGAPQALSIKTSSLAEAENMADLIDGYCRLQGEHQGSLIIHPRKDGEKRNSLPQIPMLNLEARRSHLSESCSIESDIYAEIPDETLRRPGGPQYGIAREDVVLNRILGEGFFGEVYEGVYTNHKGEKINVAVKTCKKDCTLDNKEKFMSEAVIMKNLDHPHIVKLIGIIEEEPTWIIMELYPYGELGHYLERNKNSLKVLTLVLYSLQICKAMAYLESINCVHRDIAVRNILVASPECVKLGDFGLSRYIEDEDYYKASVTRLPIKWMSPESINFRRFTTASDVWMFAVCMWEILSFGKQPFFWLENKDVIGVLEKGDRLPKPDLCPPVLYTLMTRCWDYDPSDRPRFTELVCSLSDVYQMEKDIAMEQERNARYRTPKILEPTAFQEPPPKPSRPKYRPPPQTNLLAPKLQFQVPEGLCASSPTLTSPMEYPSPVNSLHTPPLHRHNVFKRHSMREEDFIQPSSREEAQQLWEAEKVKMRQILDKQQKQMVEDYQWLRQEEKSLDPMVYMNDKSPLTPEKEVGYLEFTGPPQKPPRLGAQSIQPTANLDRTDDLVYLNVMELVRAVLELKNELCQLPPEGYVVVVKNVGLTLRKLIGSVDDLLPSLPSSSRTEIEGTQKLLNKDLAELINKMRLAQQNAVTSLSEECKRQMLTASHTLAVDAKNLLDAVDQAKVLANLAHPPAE

- binding result: no binding
B1: GST-LD with a mutation in the third LD motif (other)
chain: EELDALLEELERSTLQDSDEYSNPAPLPLDQHSRKETNLDETSEILSIQDNTSPLPAQLVYTTNIQELNVYSEAQEPKESPPPSKTSAAAQAAALMAHLTEMQAKVAVRADAGKKHLPDKQDHKASLDSMLGGLEQELQDLGIATVPK
notes: not shown: glutathione-S-transferase (GST) encoded by vector pGEX-4T-1 (Pharmacia)
